In PMC3763545 (Nucleic Acids Research, 2013):

T1: human DBP5 f.l. (residues 1-479) (human, UniProt Q9UMR2 1-479)
T1 sequence (looked up): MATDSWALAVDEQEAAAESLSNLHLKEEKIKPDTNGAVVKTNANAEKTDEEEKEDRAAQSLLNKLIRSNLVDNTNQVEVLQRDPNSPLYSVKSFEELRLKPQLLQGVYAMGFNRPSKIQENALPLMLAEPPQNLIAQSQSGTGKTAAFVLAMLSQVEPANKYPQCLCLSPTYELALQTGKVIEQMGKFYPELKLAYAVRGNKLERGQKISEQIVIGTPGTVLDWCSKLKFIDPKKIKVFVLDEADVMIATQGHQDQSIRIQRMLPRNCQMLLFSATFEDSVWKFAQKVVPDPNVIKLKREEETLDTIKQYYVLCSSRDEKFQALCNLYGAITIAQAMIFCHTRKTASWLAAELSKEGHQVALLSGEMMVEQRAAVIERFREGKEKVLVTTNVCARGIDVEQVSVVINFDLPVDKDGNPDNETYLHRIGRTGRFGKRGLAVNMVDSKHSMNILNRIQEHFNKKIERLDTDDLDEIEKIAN

B1: human DBP5 residues 1-51 (domain or fragment, UniProt Q9UMR2 1-51, looked up)
chain: MATDSWALAVDEQEAAAESLSNLHLKEEKIKPDTNGAVVKTNANAEKTDEE
B2: human full-length SLIP1 (natural protein, UniProt A9UHW6 1-222, looked up)
chain: MGEPSREEYKIQSFDAETQQLLKTALKDPGAVDLEKVANVIVDHSLQDCVFSKEAGRMCYAIIQAESKQAGQSVFRRGLLNRLQQEYQAREQLRARSLQGWVCYVTFICNIFDYLRVNNMPMMALVNPVYDCLFRLAQPDSLSKEEEVDCLVLQLHRVGEQLEKMNGQRMDELFVLIRDGFLLPTGLSSLAQLLLLEIIEFRAAGWKTTPAAHKYYYSEVSD

Columns and labels:
Experiment in all cases: ITC
[1] = molecular target: zebrafish (Danio rerio) full-length SLIP1 (zebrafish (Danio rerio))
[2] = molecular target: B2
[3] = molecular target: T1, human DBP5 f.l. (residues 1-479)

Molecule: zebrafish DBP5 residues 1-32 (domain or fragment)
- Kd [1]: 2000 nM

Molecule: B1
- Kd [2]: ~1100 nM

Molecule: B2
- Kd [3]: 100 nM
